In article PMC8273888 one finds Km, kcat and kcat/Km data, which are given here for two substances.

The test system of series [1] is [H][C@]12SCC(CS[C@H](Cc3ccccc3)C(=O)O)=C(C(=O)O)N1C(=O)[C@H]2NC(=O)Cc1ccccc1. Description: purified protein, by the assay type. Conditions: pH 7.2, 25.0 °C.
In series [2] the test system is [H][C@]12SCC(CSC(C(=O)O)c3ccccc3)=C(C(=O)O)N1C(=O)[C@H]2NC(=O)Cc1ccccc1. Description: purified protein, by the assay type. Conditions: pH 7.2, 25.0 °C.
The mark [3] stands for this setting: other: compound as substrate of NDM-1.
[4] abbreviates: other: compound as substrate of VIM-2.

Usually Km stands for the substrate concentration at which the rate is half of its maximum. What is called kcat is the number of substrate molecules converted per active site and unit of time at saturation. For orientation: kcat/Km means the second-order rate constant that governs catalysis at low substrate concentration. With NDM-1 (Klebsiella pneumoniae), in series [1] (setting [3]), the Km was 21.2 ± 4 µM, the kcat came to 17.4 s⁻¹ and the kcat/Km amounted to 821000 M⁻¹ s⁻¹. For the same substance, in series [2] (setting [3]), the Michaelis constant (Km) is 14.0 ± 2 µM, the kcat was determined as 13.1 s⁻¹ and the kcat/Km came to 936000 M⁻¹ s⁻¹.

VIM-2 (Escherichia coli): in series [1] (setting [4]), the Km stood at 4.30 ± 1 µM, the kcat is 2.35 s⁻¹ and the catalytic efficiency (kcat/Km) was found to be 546000 M⁻¹ s⁻¹. In addition, in series [2] (setting [4]), the Km is 8.28 ± 2 µM, the catalytic constant (kcat) worked out at 4.06 s⁻¹ and the kcat/Km came to 490000 M⁻¹ s⁻¹.
